± gives the standard deviation.
Experiment: protein stability index of a GFP-peptide fusion (GPS, HEK-293T) (PSI 1-6); higher = more stable
[1] = treatment: DMSO, c terminus: a fixed tail appended
[2] = treatment: MLN4924 1 uM, 8 h, c terminus: a fixed tail appended
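Also: 24-mer peptide tiles fused after GFP, lentivirally expressed, FACS-sorted into six equal bins by GFP/DsRed ratio, decoded by Illumina sequencing, PSI is the read-weighted mean bin number.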

Sequence | protein stability index [1] | protein stability index [2] | protein stability index (treatment: DMSO, c terminus: native) | protein stability index (treatment: MLN4924 1 uM, 8 h, c terminus: native)
VGLAAVNSMPVDNRNHNEGMVTRC [CHGB] | 4.27 ± 0.23 | 4.3 ± 0.37 |  | 
QNSRNKRAVQGPEETVTQDCLQLI [TNFSF13B] | 4.55 ± 0.057 | 4.68 ± 0.12 |  | 
EKVLDQVETELQRRNEETPEEGQQ [GDAP1] | 5.68 ± 0.14 | 5.64 ± 0.093 |  | 
VCALSALPAGPLPAPLLVLCPSRA [PLEKHN1] | 2.12 ± 0.2 | 2.18 ± 0.16 |  | 
QIKAIRGSNEYTEGPSVVKRPAPR [SPRY1] | 4.05 ± 0.09 | 4.47 ± 0.3 |  | 
IHTGIKPHQCSECGRAFSRKSLLV [ZNF649] | 2.56 ± 0.37 | 2.18 ± 0.4 |  | 
EEFIEEEDQEEEESTEGKEEGHQ [TRIM63] |  |  | 5.56 ± 0.41 | 5.71 ± 0.27
LGFARRNWGNGKRPNLETYYERVL [GDAP1] | 2.38 ± 0.38 | 2.36 ± 0.57 |  | 
KGNPEEEDVDTSQVLYEWEQGFSQ [CTNNB1] | 5.11 ± 0.25 | 5.25 ± 0.28 |  | 
MAYAKLMLTVMTKYQANITETQRL [FANCE] | 3.16 ± 0.75 | 2.95 ± 0.52 |  | 
YNWEEERATNHLDQVPSMQDGSES [SPAG8] | 5.33 ± 0.23 | 5.44 ± 0.15 |  | 
GLMVTCGTDRIVKIWDMTPVVGCS [WDFY1] | 2.29 ± 0.21 | 2.18 ± 0.22 |  | 
TKKGFYSLSVRHRQVKHYRIFRLP [SLA] | 2.54 ± 0.45 | 2.54 ± 0.31 |  | 
ILKQLIADVTLDPETAHPNLVLSE [TRIM39] | 2.67 ± 0.085 | 2.81 ± 0.29 |  | 
DNALWERDRNLLQEDKALWEEEKA [CCDC70] | 5.57 ± 0.32 | 5.05 ± 0.31 |  | 
TTGIVETHFTFKDLHFKMFDVGGQ [GNAI1] | 2.08 ± 0.35 | 2.27 ± 0.14 |  | 
MRQDLEEERVALNTEIEKLGRSIV [PKD2L1] | 4.29 ± 0.13 | 4.38 ± 0.23 |  | 
IEVNGENVEDASHEEVVEKVKKSG [PDZK1] | 5.63 ± 0.16 | 5.34 ± 0.38 |  | 

Sequence | protein stability index [1] | protein stability index [2] | protein stability index (treatment: DMSO, c terminus: native) | protein stability index (treatment: MLN4924 1 uM, 8 h, c terminus: native)
NQPSGLIRTYLGRSPLVSGDESSL [RHOBTB3] | 3.85 ± 0.25 | 3.84 ± 0.3 |  | 
ACDNGLNVRGGKPDDITVLLSIVA [PPTC7] | 2.32 ± 0.59 | 2.16 ± 0.45 |  | 
GELQESGLALCPEVQDLLEGCELP [SMG5] | 5.17 ± 0.11 | 5.08 ± 0.22 |  | 
TWKSGKQTMLSHYRPFYVNKGNGI [TRIM29] | 2.36 ± 0.41 | 2.4 ± 0.2 |  | 
EEGVVGGLSGGALSPLRAASDPLL [TFE3] | 4.33 ± 0.31 | 4.63 ± 0.4 |  | 
VLTDSNHVPLQRLSLLVHNVSVMH [FBXO33] | 1.96 ± 0.3 | 2.22 ± 0.28 |  | 
AEIQEACCEFLKRQLDPSNCLGIR [KLHL20] | 2.52 ± 0.24 | 2.67 ± 0.34 |  | 
KVLTEPEVRYYLRQIVSGLKYLHE [PLK2] | 3.19 ± 0.29 | 2.42 ± 0.33 |  | 
CEEVKMTVASEAKIQLSDSEAKSH [FAN1] | 5.46 ± 0.17 | 5.47 ± 0.074 |  | 
LRAFVNSQIQGHKEMSKVWNDLRP [SNX8] | 2.39 ± 0.21 | 2.62 ± 0.27 |  | 
GSPGMIYSTRYGSPKRQLQFYRNL [KCNAB2] | 2.44 ± 0.55 | 3.1 ± 0.38 |  | 
SWVVRVQAAKLLGSMEQVSSHFLE [INTS4] | 2.47 ± 0.45 | 2.53 ± 0.43 |  | 
PSLPAAGEQDCCGERVVINISGLR [KCNA3] | 3.79 ± 0.36 | 3.76 ± 0.29 |  | 
RRGIALIFNHERFFWHLTLPERRG [CASP6] | 2.75 ± 1.6 | 2.04 ± 0.68 |  | 
IHSREKRGDSVKVENPSTASHSLS [ZNF649] | 4.97 ± 0.26 | 5.22 ± 0.15 |  | 
SFLFLGCSHSFLLAVMGYDRYIAI [OR10K2] | 3.14 ± 0.21 | 2.83 ± 0.59 |  | 
LSLEAVICFKEMLANSWNCLPKHL [KLHDC2] | 2.49 ± 0.35 | 2.37 ± 0.53 |  | 
AGAEPLPRNGDQWHEIRQGRLPRI [WEE1] | 3.86 ± 0.47 | 4.24 ± 0.4 |  | 
